{
  "source": "patent US20090042235A1",
  "about": "“PHOTOREGULATED PEPTIDE, AND METHOD FOR REGULATION OF PEPTIDE-PROTEIN COMPLEX FORMATION USING THE PHOTOREGULATED PEPTIDE” (priority 2005, published 2009)",
  "molecular_target": "T1, PI3-Kα SH3 domain (Homo sapiens, UniProt P27986)",
  "T1 construct": "As a functional protein, an SH3 domain protein of PI3-Kα was used",
  "T1 sequence (P27986 3-79 limits assumed)": "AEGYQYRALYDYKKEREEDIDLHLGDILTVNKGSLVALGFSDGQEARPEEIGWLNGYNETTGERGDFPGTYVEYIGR",
  "assay": "Circular dichroism (CD) differential spectra of peptide / PI3-Kα SH3 domain mixtures: photoregulation of peptide-protein complex formation",
  "type": "binding",
  "description": "As a functional protein, an SH3 domain protein of PI3-Kα was used. The PI3-Kα SH3 domain interacts with RLP1. The peptide having an intramolecular cross-linkage obtained in the manner as described above and the PI3-Kα SH3 domain were mixed in 10 mM phosphate buffer solution (pH 7.0), to obtain Mixture solution (I) in which the concentration of the peptide having an intramolecular cross-linkage was 100 microM and that of the PI3-Kα SH3 domain was 20 microM.\nThen, Mixture solution (I) was irradiated with UV light. Irradiation was performed by using Minilite II manufactured by Continuum as a UV irradiator, with pulsed light at wavelength of 355 nm (third harmonic of Nd-YAG laser, pulse width 5 ns, 10 Hz, pulse intensity 4 mJ/cm^2) at 4° C. for 30 minutes. By UV irradiation, either one of the bonds between cysteine and DBMNB in the peptide having an intramolecular cross-linkage was cleaved. This was named Mixture solution (II).\nUsed sample solutions are shown below.\n(i) Mixture solution (I) (ii) Mixture solution (II) (iii) Uncross-linked peptide RLP1 100 microM (10 mM phosphate buffer solution, pH 7.0) (iv) Peptide having an intramolecular cross-linkage (not irradiated with UV light) 100 microM (10 mM phosphate buffer solution, pH 7.0) (v) PI3-Kα SH3 domain 20 microM (10 mM phosphate buffer solution, pH 7.0) (vi) Mixture solution prepared by mixing an uncross-linked peptide RLP1 and a PI3-Kα SH3 domain in 10 mM phosphate buffer solution (pH 7.0), so that the concentration of the uncross-linked peptide is 100 microM and that of the PI3-Kα SH3 domain is 20 microM.\nThe horizontal axis of the graph represents wavelength of circularly polarized light (Wavelength/nm), and the vertical axis represents intensity of circular dichroism (Δθ/mdeg). In the graph of FIG. 7, “dark” represents different-al spectrum obtained by subtracting CD spectrum (iv) of the peptide having an intramolecular cross-linkage and CD spectrum (v) of the PI3-Kα SH3 domain from CD spectrum (i) of Mixture solution (I). Further, “light” represents differential spectrum obtained by subtracting CD spectrum (i) of Mixture solution (I) from CD spectrum (ii) of Mixture solution (II).",
  "note": "Bridge positions count the residues as written; N and C are the ends. Ends that are not written are not given here. DBMNB = photocleavable intramolecular cysteine cross-linker",
  "data": [
    {"substance": "RKLPPRSK [RLP1, reference compound]", "values": [
      {"measurement": "differential CD spectrum of mixture with PI3-Kα SH3 domain minus peptide and SH3 domain spectra (peak ascribable to formation of complex)", "setting": "uncross-linked peptide 100 microM, SH3 domain 20 microM, 10 mM phosphate buffer pH 7.0, no irradiation", "value": "positive peak was observed around 220 nm"}
    ]},
    {"substance": "peptide having an intramolecular cross-linkage: RLP1-2C (Cys Arg Lys Leu Pro Pro Arg Ser Lys Cys) intramolecularly cross-linked between its cysteines via photocleavable DBMNB, cyclic (CRKLPPRSKC; linker 1-10 via DBMNB)", "values": [
      {"measurement": "interaction with specific recognizing site of the PI3-Kα SH3 domain (differential CD spectrum \"dark\")", "setting": "Mixture solution (I), not irradiated, peptide 100 microM, SH3 domain 20 microM, 10 mM phosphate buffer pH 7.0, room temperature", "value": "no interaction"},
      {"measurement": "differential CD spectrum \"light\" (Mixture solution (II) minus Mixture solution (I))", "setting": "after UV irradiation 355 nm pulsed light, 4° C., 30 minutes, peptide 100 microM, SH3 domain 20 microM, pH 7.0", "value": "positive peak was observed around 220 nm"},
      {"measurement": "complex formation with PI3-Kα SH3 domain", "setting": "after UV irradiation (cyclic structure dissociated)", "value": "forms a complex"}
    ]}
  ]
}
